# Assay results reported in paper PMC8193172.
# Target: Hydrophobin-BMP2 fusion protein (UniProt P12643)
# Assay: SDS-PAGE and Western blot
substance,measurement,value
Hydrophobin-BMP2 fusion protein (from UniProt P12643 283-396),stoichiometry N,2
